In IntAct's records for PubMed 15319482:

B1: Protein BRASSINOSTEROID … 1 (Arabidopsis thaliana (Mouse-ear cress)), O22476 (parent)
chain: MKTFSSFFLSVTTLFFFSFFSLSFQASPSQSLYREIHQLISFKDVLPDKNLLPDWSSNKNPCTFDGVTCRDDKVTSIDLSSKPLNVGFSAVSSSLLSLTGLESLFLSNSHINGSVSGFKCSASLTSLDLSRNSLSGPVTTLTSLGSCSGLKFLNVSSNTLDFPGKVSGGLKLNSLEVLDLSANSISGANVVGWVLSDGCGELKHLAISGNKISGDVDVSRCVNLEFLDVSSNNFSTGIPFLGDCSALQHLDISGNKLSGDFSRAISTCTELKLLNISSNQFVGPIPPLPLKSLQYLSLAENKFTGEIPDFLSGACDTLTGLDLSGNHFYGAVPPFFGSCSLLESLALSSNNFSGELPMDTLLKMRGLKVLDLSFNEFSGELPESLTNLSASLLTLDLSSNNFSGPILPNLCQNPKNTLQELYLQNNGFTGKIPPTLSNCSELVSLHLSFNYLSGTIPSSLGSLSKLRDLKLWLNMLEGEIPQELMYVKTLETLILDFNDLTGEIPSGLSNCTNLNWISLSNNRLTGEIPKWIGRLENLAILKLSNNSFSGNIPAELGDCRSLIWLDLNTNLFNGTIPAAMFKQSGKIAANFIAGKRYVYIKNDGMKKECHGAGNLLEFQGIRSEQLNRLSTRNPCNITSRVYGGHTSPTFDNNGSMMFLDMSYNMLSGYIPKEIGSMPYLFILNLGHNDISGSIPDEVGDLRGLNILDLSSNKLDGRIPQAMSALTMLTEIDLSNNNLSGPIPEMGQFETFPPAKFLNNPGLCGYPLPRCDPSNADGYAHHQRSHGRRPASLAGSVAMGLLFSFVCIFGLILVGREMRKRRRKKEAELEMYAEGHGNSGDRTANNTNWKLTGVKEALSINLAAFEKPLRKLTFADLLQATNGFHNDSLIGSGGFGDVYKAILKDGSAVAIKKLIHVSGQGDREFMAEMETIGKIKHRNLVPLLGYCKVGDERLLVYEFMKYGSLEDVLHDPKKAGVKLNWSTRRKIAIGSARGLAFLHHNCSPHIIHRDMKSSNVLLDENLEARVSDFGMARLMSAMDTHLSVSTLAGTPGYVPPEYYQSFRCSTKGDVYSYGVVLLELLTGKRPTDSPDFGDNNLVGWVKQHAKLRISDVFDPELMKEDPALEIELLQHLKVAVACLDDRAWRRPTMVQVMAMFKEIQAGSGIDSQSTIRSIEDGGFSTIEMVDMSIKEVPEGKL
partner: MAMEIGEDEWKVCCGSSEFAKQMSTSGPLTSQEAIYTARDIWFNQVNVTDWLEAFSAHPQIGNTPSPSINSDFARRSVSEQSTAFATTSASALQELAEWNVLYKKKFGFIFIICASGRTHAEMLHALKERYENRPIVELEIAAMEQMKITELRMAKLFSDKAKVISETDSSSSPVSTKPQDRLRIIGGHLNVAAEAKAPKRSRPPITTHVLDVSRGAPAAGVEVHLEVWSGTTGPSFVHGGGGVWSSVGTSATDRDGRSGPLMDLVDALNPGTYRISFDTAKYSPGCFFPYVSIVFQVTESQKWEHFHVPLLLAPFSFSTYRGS

How the values were obtained:
[1] = variants of: B1; conditions: with tthl_arath TTL
[2] = variants of: B1; conditions: with tthl_arath TTL; remark: listed apart in the source

Variant | effect of a mutation on the interaction [1] | effect of a mutation on the interaction [2]
G1048D | decreasing interaction | disrupting interaction
A1031T |  | disrupting interaction
E1078K | decreasing interaction | disrupting interaction
